T1: NLS-pMag-CreC
T1 chain: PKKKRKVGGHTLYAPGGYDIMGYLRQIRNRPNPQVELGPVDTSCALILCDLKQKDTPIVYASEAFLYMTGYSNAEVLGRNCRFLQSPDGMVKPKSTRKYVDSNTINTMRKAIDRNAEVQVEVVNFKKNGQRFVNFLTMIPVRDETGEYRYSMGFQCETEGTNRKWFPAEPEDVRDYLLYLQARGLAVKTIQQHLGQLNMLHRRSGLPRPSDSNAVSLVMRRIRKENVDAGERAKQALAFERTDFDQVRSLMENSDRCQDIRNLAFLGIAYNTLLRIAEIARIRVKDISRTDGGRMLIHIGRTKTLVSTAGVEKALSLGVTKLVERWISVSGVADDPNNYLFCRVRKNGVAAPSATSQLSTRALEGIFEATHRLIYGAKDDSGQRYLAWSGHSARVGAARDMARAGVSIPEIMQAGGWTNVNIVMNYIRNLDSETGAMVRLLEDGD

B1: ERT2-CreN-nMag (other)
chain: MAGDMRAANLWPSPLMIKRSKKNSLALSLTADQMVSALLDAEPPILYSEYDPTRPFSEASMMGLLTNLADRELVHMINWAKRVPGFVDLTLHDQVHLLECAWLEILMIGLVWRSMEHPVKLLFAPNLLLDRNQGKCVEGMVEIFDMLLATSSRFRMMNLQGEEFVCLKSIILLNSGVYTFLSSTLKSLEEKDHIHRVLDKITDTLIHLMAKAGLTLQQQHQRLAQLLLILSHIRHMSNKGMEHLYSMKCKNVVPLYDLLLEAADAHRLHAPTSRGGASVEETDQSHLATAGSTSSHSLQKYYITGEAEGFPATAVDNLLTVHQNLPALPVDATSDEVRKNLMDMFRDRQAFSEHTWKMLLSVCRSWAAWCKLNGTHTLYAPGGYDIMGYLDQIGNRPNPQVELGPVDTSCALILCDLKQKDTPIVYASEAFLYMTGYSNAEVLGRNCRFLQSPDGMVKPKSTRKYVDSNTINTMRKAIDRNAEVQVEVVNFKKNGQRFVNFLTMIPVRDETGEYRYSMGFQCETE
B2: myc-α-CD38-Receptor (receptor)
chain: SEQKLISEEDLDIQLTQSSSSFSVSLGDRVTITCKASEDIYNRLAWYQQKPGNAPRLLISGATSLETGVPSRFSGSGSGKDYTLSITSLQTEDVATYYCQQYWSTPTFGGGTKLEIKRADAAPTVSIFPPSGGGGSGGGGSGGGGSGGGGSQVQLKQSGPSLVQPSQRLSITCTVSGFSLISYGVHWVRQSPGKGLEWLGVIWRGGSTDYNAAFMSRLSITKDNSKSQVFFKMNSLQADDTAIYFCAKTLITTGYAMDYWGQGTSVTVSSAAAIEVMYPPPYLDNEKSNGTIIHVKGKHLCPSPLFPGPSKPFWVLVVVGGVLACYSLLVTVAFIIFWVRSKRS
notes: Non-signalling anchoring receptor with myc tag, expressed on Jurkat T cells; also called c-myc-tagged α-CD38 Receptor

Legend:
NLS-pMag-CreC = target: T1, NLS-pMag-CreC; experiment: cell-based or functional assay
[1] = target: T2, CD38 on CD38+ Toledo Target cells (UniProt P28907 1-300, limits assumed); experiment: flow cytometry, Jurkat T cells carrying the receptor with Toledo Target cells
T2 construct: whole, on cells

Binder | fold increase in recombined TamPA-Cre+ CAR Reporter Jurkat T cells, Light+4-OHT against Dark+4-OHT (NLS-pMag-CreC) | binding result [1]
B1 | 27.1 fold | –
B2 | – | binds
